Values joined by “and” are separate entries in the source; they are usually repeats but may differ in a detail not shown here. Equal entries are not always repeated.
Molecular target: the molecule itself
Test: SEC; HiLoad 16/60 Superdex 75, 50 mM Tris-HCl pH 7.5; samples incubated 1 week at 4 °C and applied at 10 mg/mL; calibrated with myoglobin, alpha-chymotrypsin and BSA

B1: recombinant profilin allergen rHev b 8 (isoform Hev b 8.0102) from Hevea brasiliensis (natural protein)
chain: MSWQAYVDDHLMCEIEGNHLSAAAIIGQDGSVWAQSANFPQFKSEEITGIMSDFHEPGTLAPTGLYIGGTKYMVIQGEPGAVIRGKKGPGGVTVKKTNQALIIGIYDEPMTPGQCNMIVERLGDYLIDQGY
notes: Cloned in pET28c; The dimer is held by a disulfide bridge between Cys13 of both chains; also called monomeric rHev b 8; dimeric rHev b 8; source: E. coli Rosetta (DE3), purified (Ni-NTA, enterokinase cleavage, mono Q anion exchange; oligomers separated by SEC)
With B1 the “stoichiometry N” value was 2 and 3 and 4.

Reference: PMC5009318, “Structural insights into the IgE mediated responses induced by the allergens Hev b 8 and Zea m 12 in their dimeric forms” (Scientific Reports, 2016)
